Results taken from US12180473B2, “Chimeric RNA-driven genomic rearrangement in mammalian cells” (priority 2018, dated 2024).
Entries after “also recorded” stand apart in the source; their conditions may differ.

Tested on: TMPRSS2-ERG fusion
Assay: RT-PCR detection of induced endogenous TMPRSS2-ERG fusion transcript in LNCaP cells expressing input RNA
Details: for induction of endogenous TMPRSS2-ERG fusion transcript (RT-PCR): LNCaP cells transfected with input RNA plasmid, DHT for 3 days; for Cell line(s) identified: fusion gene partners TMPRSS2-ERG, LNCaP
Description: LNCaP cells were cultured in this special medium for 24 hrs prior to plasmid transfection.
Transfection was performed using Turbofect transfection reagent (Thermo Scientific, #R0531) according to manufacturer's protocol. Briefly, 1 μg of a particular plasmid was first diluted in 100 μl of the serum-free DMEM followed by immediate mixing by pipetting. 4 μl of the transfection reagent was then added to the diluted DNA followed by mixing and incubation for 20 min. The DNA/transfection reagent mixture was then added drop wise to a well containing LNCaP cells in 1 ml medium.
For treating cultured cells, concentrated DHT stock was diluted as 10× working solutions (for example, for 0.9 μM final concentration, 10× is prepared as 9.0 μM) with the appropriate complete culture medium and used immediately. […] Six hrs post transfection, 111 μl of fresh 10× DHT working solutions was added to each well of 12-wells plate containing 1 ml medium and transfected cells.
Briefly, cells were suspended in 200 μl of PBS buffer and were then lysed with 400 μl of lysis buffer. The sample was then passed through the filter assembly resulting in the binding of the nucleic acids to the filter. The filter containing nucleic acids was then incubated with DNase I dissolved in DNase incubation buffer to degrade genomic and plasmid DNAs. The column was then rinsed with wash buffer and total RNA then eluted in a new tube for further analysis.
After the addition of dNTPs, the mixture was denatured at 65° C. for 5 minutes. This was followed by the addition of a master-mix containing 1× superscript buffer, 10 mM DTT, 5 mM Magnesium chloride, RNaseOUT and Superscript III reverse transcriptase. Reactions were carried out at 50° C. for 50 minutes and then terminated by incubation at 85° C. for 5 minutes. cDNA was then treated with RNase-H for 20 minutes at 37° C. to degrade RNA in DNA/RNA hybrid. 1 μl of cDNA was used as template for each subsequent PCR reaction.
The Denaturation, Annealing and Extension steps were performed 32 cycles for induced fusion RNA and 27 cycles for input RNA.

| Molecule | induction of endogenous TMPRSS2-ERG fusion transcript (RT-PCR) | Cell line(s) identified | induction of endogenous TMPRSS2-ERG fusion transcript (RT-PCR) (listed as antisense-3) |
| --- | --- | --- | --- |
| Antisense-B1: input RNA, SEQ ID NO: 15 (nucleic acid) antisense: TGTGCTCGCTTCGGCAGCACATATACTAACATTGGAACGATCCTGCAGTGGCCTGAGCCTTGAAGAATGGGGTGTACTGGGTAAATCAAAATGGTGGGGAGCATTTCCAGATGGAGAAACTGCCTCACCTGCCGCGCTCCAGGCGGCGCTCCCCGCCCCTCGCCCTCCGCCTCCG | clearly induced fusion transcripts | LNCaP |  |
| Antisense-D1: input RNA, SEQ ID NO: 21 (nucleic acid) antisense: TGTGCTCGCTTCGGCAGCACATATACTAACATTGGAACGATCCTGCAGGAGAGACAGAGAGAGAGAGGCTGGTAGAGGGAAGAGACAGAAGAAAGATGAAGGGATAAGTGTCCAGAATCCCTGAGCGCTCGACCCTCGGGCGCACTCACCTGCCGCGCCGCGCTCCTCACACCCG | clearly induced fusion transcripts | LNCaP |  |
| Antisense-C1: input RNA, SEQ ID NO: 18 (nucleic acid) antisense: TGTGCTCGCTTCGGCAGCACATATACTAACATTGGAACGATCCTGCAGTGAGCTCATGCTATTCCTATGACATAGATGAGCACTGGGTAGACCCCGTCCTGGTAACACTATTCATGCACTAACCCCAGGCGGGGGCCGTGGAGGGCAGGCGGACTAGGAGCCAGCTTTGGGGACC | clearly induced fusion transcripts | LNCaP |  |
| Antisense-C3: input RNA, SEQ ID NO: 20 (nucleic acid) antisense: TGTGCTCGCTTCGGCAGCACATATACTAACATTGGAACGATCCTGCAGGTCCTGGTAACACTATTCATGCACTAACAAGTTGGTTGCCAGTGAGACTTGATTATTATGACTCTGGGAGTGCTGCCCAGGCGGGGGCCGTGGAGGGCAGGCGGACTAGGAGCCAGCTTTGGGGACC | complete loss of induction |  |  |
| Antisense-5B: input RNA, SEQ ID NO: 14 (nucleic acid, input RNA, chemistry not given here) antisense: TGTGCTCGCTTCGGCAGCACATATACTAACATTGGAACGATCCTGCAGCTTGAGCCATTCACCTGGCTAGGGTTACATTCCATATTGATGGTGACCCTGGCTGGGGGTTGAGACAGCCAATCC | loss of induction |  |  |
| Antisense-G1: input RNA, SEQ ID NO: 26 (nucleic acid) antisense: TGTGCTCGCTTCGGCAGCACATATACTAACATTGGAACGATCCTGCAGTTTATTCATGAGAAAATTCTGGCACAATGGAAAACCCTGGCAAGCAAAAGATAGGGGCAGCAGATGTCCTGGCCTACAAAGAACTCCAAGCCCATCGTCCCTAGAAAGCATGGTCTCCCATGACCCC | failed to induce fusion transcripts |  |  |
| Antisense-1: input RNA, SEQ ID NO: 4 (nucleic acid) antisense: TCAGATCGCCTGGAGACGCCATCCACGCTGTTTTGACCTCCATAGAAGACACCGGGACCGATCCAGCCTCCCCTCGAAGCTGATCCTGAGAACTTCAGGCTCCTGGGCAACGTGCTGGTCTGTGTGCTGGCCCATCACTTTGGCAAAGAATTCCTTGAGCCATTCACCTGGCTAGGGTTACATTCCATTTTGATGGTGACCCTGGCTGGGGGTTGAGACAGCCAATCCTGCTGAGGGACGCGTGGGCTCATCTTGGAAGTCTGTCCATAGTCGCTGGAGGAGGACGCGGTCATCTCTGTCTTAGCCAGGTGTGGCGTTCCGTAGGCACACTCAAACAACGACTGGTCCTCACTCACAACTGATAAGGCTTCCTGCCGCGCTCCAGGCGGCGCTCCCCGCCCCTCGCCCTCCGCCTCCGCCTCCGCCTCCTGCTTAGCTCGCGCCTACTCAAGCTTATCGATACCGTCGACCTCGAGGGCCCAGATCTAATTCACCCCACCAGTGCAGGCTGCCTATCAGAAAGTGGTGGCTGGTGTGGCTAATGCCCTGGCCCACAAGTATCACTAAGCTCGCTTTCTTGCTGTCCAATTTCTATTAAAGGTTCCTTTGTTCCCTAAGTCCAACTACTAAACTGGGGGATATTATGAAGGGCCTTCCGGAGCATCTGGATTCTGCCTAATAAAAAACATTTATTTTCATTGCAAAAAAA | induced a clear band of 721 bp | LNCaP |  |
| Sense-D1: input RNA, SEQ ID NO: 33 (nucleic acid) sense: TGTGCTCGCTTCGGCAGCACATATACTAACATTGGAACGATCCTGCAGCGGGTGTGAGGAGCGCGGCGCGGCAGGTGAGTGCGCCCGAGGGTCGAGCGCTCAGGGATTCTGGACACTTATCCCTTCATCTTTCTTCTGTCTCTTCCCTCTACCAGCCTCTCTCTCTCTGTCTCTC | failed to induce fusion transcripts |  |  |
| Antisense-D2: input RNA, SEQ ID NO: 22 (nucleic acid) antisense: TGTGCTCGCTTCGGCAGCACATATACTAACATTGGAACGATCCTGCAGGAGAGACAGAGAGAGAGAGGCTGGTAGAGGGAAGAGACAGAAGAAAGATGAAGGGATAAGTGTCCAGAATCCCTGCCCAGCACTCTCCCAGCACCCCGGGAGGCGCCCTGCCCGGCTGGCCCCAGCG | complete loss of induction |  |  |
| Sense-C1: input RNA, SEQ ID NO: 32 (nucleic acid) sense: TGTGCTCGCTTCGGCAGCACATATACTAACATTGGAACGATCCTGCAGGGTCCCCAAAGCTGGCTCCTAGTCCGCCTGCCCTCCACGGCCCCCGCCTGGGGTTAGTGCATGAAGAGTGTTACCAGGACGGGGTCTACCCAGTGCTCATCTATGTCATAGGAAGAGCATGAGCTCA | failed to induce fusion transcripts |  |  |
| Antisense-5A: input RNA, SEQ ID NO: 13 (nucleic acid) antisense: TGTGCTCGCTTCGGCAGCACATATACTAACATTGGAACGATCCTGCAGGCCGCTCACCTGCCGCGCTCCAGGCGGCGCTCCCCGCCCCTCGCCCTCCGCCAGACAGGAGTGAGAGATGGAAGCTCGCGCCTACTC | loss of induction |  |  |
| Antisense-7: input RNA, SEQ ID NO: 10 (nucleic acid) antisense: TGTGCTCGCTTCGGCAGCACATATACTAACATTGGAACGATCCTGCAGCTTGAGCCATTCACCTGGCTAGGGTTACATTCCATATTGATGGTGACCCTGGCTGGGGGTTGAGACAGCCAATCCCGGACCCCGAGCCGGGACCCTGGTACCGGCGCCGCTCACCTGCCGCGCTCCAAGACAGGAGTGAGAGATGGAAGCTCGCGCCTACTC | loss of induction; also recorded: did not |  |  |
| Sense-B1: input RNA, SEQ ID NO: 31 (nucleic acid) sense: TGTGCTCGCTTCGGCAGCACATATACTAACATTGGAACGATCCTGCAGCGGAGGCGGAGGGCGAGGGGCGGGGAGCGCCGCCTGGAGCGCGGCAGGTGAGGCAGTTTCTCCATCTGGAAATGCTCCCCACCATATTGATTTACCCAGTACACCCCATTCTTCAAGGCTCAGGCCA | failed to induce fusion transcripts |  |  |
| Antisense-E1: input RNA, SEQ ID NO: 24 (nucleic acid) antisense: TGTGCTCGCTTCGGCAGCACATATACTAACATTGGAACGATCCTGCAGAGGGTATTCAGTATTACTATTTGGCTTAGATAAGCTGGTAGTTACTTGCTAAAATTAATCTTTATTATAAAGCAGAAAGCCGCATTCTGACATCACTCTCCATGGACAAAGATTCTTCGCTTGATCA | failed to induce fusion transcripts |  |  |
| Antisense-B2: input RNA, SEQ ID NO: 16 (nucleic acid) antisense: TGTGCTCGCTTCGGCAGCACATATACTAACATTGGAACGATCCTGCAGTGGCCTGAGCCTTGAAGAATGGGGTGTACTGGGTAAATCAAAATGGTGGGGAGCATTTCCAGATGGAGAAACTGCCCCTCCCCAGCCCGGACCCCGAGCCGGGACCCTGGTACCGGCGCCGCTCACC | complete loss of induction |  |  |
| Antisense-D3: input RNA, SEQ ID NO: 23 (nucleic acid) antisense: TGTGCTCGCTTCGGCAGCACATATACTAACATTGGAACGATCCTGCAGTGAAGGGATAAGTGTCCAGAATCCCTGGATCTGGGATGGAATAAAGGATCTGGATGGTAAACGGAGAGTGCTGGGAGCGCTCGACCCTCGGGCGCACTCACCTGCCGCGCCGCGCTCCTCACACCCG | complete loss of induction |  |  |
| Antisense-F1: input RNA, SEQ ID NO: 25 (nucleic acid) antisense: TGTGCTCGCTTCGGCAGCACATATACTAACATTGGAACGATCCTGCAGAATGGATGAATACATAAAATAAATTGTGGTGGATATATACAACGGAATATCATTTAGCCTTTATTATTATTGAGAACTGTGCCGAGCCGGGCAGGACAGGATGAGGTGGACCGAAGCGCCCAGGTGC | failed to induce fusion transcripts |  |  |
| Antisense-3: input RNA, SEQ ID NO: 6 (nucleic acid) antisense: TGTGCTCGCTTCGGCAGCACATATACTAACATTGGAACGATCCTGCAGCTTGAGCCATTCACCTGGCTAGGGTTACATTCCATATTGATGGTGACCCTGGCTGGGGGTTGAGACAGCCAATCCCGGACCCCGAGCCGGGACCCTGGTACCGGCGCCGCTCACCTGCCGCGCTCCAGGCGGCGCTCCCCGCCCCTCGCCCTCCGCCAGACAGGAGTGAGAGATGGAAGCTCGCGCCTACTC | unable to induce fusion |  | inability of antisense-3 to induce; also recorded: did not |
